The values below come from paper PMC7821874 (Science Advances, 2020).

Data set [1] deals with the molecule itself. Briefly: negative stain electron microscopy.
The target in data set [2] is T1, wild-type (WT) human CAV1α with a C-terminal 6X-Histidine tag (human), Q03135.
T1 chain: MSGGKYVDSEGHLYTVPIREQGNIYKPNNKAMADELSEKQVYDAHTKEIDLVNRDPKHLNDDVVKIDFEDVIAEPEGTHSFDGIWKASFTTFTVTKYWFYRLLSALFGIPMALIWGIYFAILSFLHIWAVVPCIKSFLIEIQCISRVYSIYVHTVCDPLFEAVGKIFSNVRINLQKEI
Briefly: negative stain electron microscopy. Conditions: remark: other sources report otherwise.

B1: CAV1β with a 6X His-tag at the C terminus (natural protein, human, UniProt Q03135 32-178, looked up)
chain: MADELSEKQVYDAHTKEIDLVNRDPKHLNDDVVKIDFEDVIAEPEGTHSFDGIWKASFTTFTVTKYWFYRLLSALFGIPMALIWGIYFAILSFLHIWAVVPCIKSFLIEIQCISRVYSIYVHTVCDPLFEAVGKIFSNVRINLQKEI
Turning to B1, the binding result in data set [1] is given as “binds”.

B2: CAV1β-Venus (natural protein, human, UniProt Q03135 32-178, looked up)
chain: B1 chain
With B2, the binding result in data set [1] is on record as “binds”.

B3: wild-type (WT) human CAV1α with a C-terminal 6X-Histidine tag, Q03135 1-178 (natural protein)
chain: T1 chain
In data set [2], B3 yielded a stoichiometry N of 10.

What is called stoichiometry N is a count of units in the complex or per binding partner.
